{"source": "the nanobody polyreactivity screen of Harvey et al. (2022)"}
{"experiment": "yeast display, Sf9 membrane polyspecificity reagent, FACS + sequencing; frameworks hold sequencing errors", "how_it_was_run": "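After 36–48 hours of galactose induction, yeast (Saccharomyces cerevisiae BJ5465) displaying a synthetic nanobody library were stained at 4 °C for 1 hour with 10% biotinylated, detergent-solubilized Sf9 membrane reagent. Streptavidin microbeads enriched the stained cells before FACS sorting into low and high (top ~1%) gates on anti-HA and streptavidin fluorescence. Each clone's polyreactivity label reflects its gate of origin.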"}
{"sequence": "QVQLVESGGGLVQAGGSLRVSCAASGRIVWPNTMGWSRQAPGKERELVAAISWSGGSTYYADSVKGRFTISRDNAKNTVYLHRNSLKPEHTAVYSCAKRPPHYSWPKIIDFGSWGQGTQVTVSS", "polyreactivity (PSR sort gate)": "high polyreactivity"}
{"sequence": "QVQLVESGGGLVQAGGSLRLNCAASGRIFGYNDMGWSRQAPGKERELVAAIDYSAGSTYYADSVKGRFTISRDNAKNTVNLQMNSLKPEDTAVYYCNTDSESSLLSSRGYWGQGTQVTVSS", "polyreactivity (PSR sort gate)": "low polyreactivity"}
{"sequence": "QVQLVESGGGLVQAGGSLRLSCAASGRTFKLYAMGWYRQAPGKERELVAAITESGGSTYYAVSVKGRFTISRDNAKNTVYLQMNSLKPEDTAVYYCAAYASAGTRGGYDYWGQGTQVTVSS", "polyreactivity (PSR sort gate)": "low polyreactivity"}
{"sequence": "QVQLVESGGGLVQAGGSLRLSCAASGRIFTKYAMGWYRQAPGKERELVAGISSSGGSTYYADSVKGRFTISRDIAKNTVYLQMNSLKPEDTAVYYCAARGYYKYDYWGQGTQVTVSS", "polyreactivity (PSR sort gate)": "high polyreactivity"}
{"sequence": "QVQLVESGGGLVQAGGSLRLSCAASGSTFYYYAMGWYRQAPGKERELVAAIRLIGGTTYYADSVKGRFTISRDNAKNTVYLQMNSLKPEDTAVYYCNARYSTGYTSPSYWGVYKHYDSWGQGTQVTVSS", "polyreactivity (PSR sort gate)": "low polyreactivity"}
{"sequence": "QVQLVESGGRIVQAGGSLRLSCAASGSTFLYYDMGWYRQAPGKERELVAAITNGGNTYYADSVKGRFTISRDNAKNTVYLQKNSRKPEDTAVYYCAKLYTDAIVWSAYDYWGQGTQVTVSS", "polyreactivity (PSR sort gate)": "low polyreactivity"}
{"sequence": "QVQRVESGGGLVQAGGSLRLSCAASGFTFESYAMGWYRQAHGKERELVAAITWDGGSTYYADSVKGRFTISRDNAKNTVYLQMNSLKPEDTAVYDCAADFGTISIDVYSWMDYWGQGTQVTGSS", "polyreactivity (PSR sort gate)": "low polyreactivity"}
{"sequence": "QVQLVESGGGLVQAGGSLRLSCAASVLTFSYYALGGSRPAHGTERELVAAITSSGGRTTYADSVKGRFTISRDNAKNTVYLQMNSLKPEDTAVYYCNVVRCTLKYGYWGQGTQVTVSS", "polyreactivity (PSR sort gate)": "high polyreactivity"}
{"sequence": "QVQLVESGGCLVQAGGSLRLSCAASGRIFLPYAMVWYRQAPGKERELVASITRRGGTTYYADSVKGRFTISRDNAKNTVYLQMNSLKPADSAVYYCAKESWPYGTRGYYHYEYWGQGTQVTVSS", "polyreactivity (PSR sort gate)": "high polyreactivity"}
{"sequence": "QVQLVESGGGLVQAGGSLRLSCAASGLIFPPYAMGWYRQAPGKEREFVARISWSTSSTYYADSVKGRFTISRDNAKNTVYLQMNSLKPEDTAVYYCNARFDDWWGEFDYWGQGTQVTVSS", "polyreactivity (PSR sort gate)": "high polyreactivity"}
{"sequence": "QVQLVESGGGLVQAGGSLRLSCAASGIISSVYAMGWYRPAPGKERELVAAISGSGGSTYYADSVKGRFTISRDNAKNTVYLQMNSLKAEDTAVYYCAKGYQYQGNSYGYWGQGTQVTVSS", "polyreactivity (PSR sort gate)": "low polyreactivity"}
{"sequence": "HVQLVESGGGLVQAGGSLRLSCAASGRIFVDYVMGWYRQAPGKERELVARITWIGGNTYYADSVKGRFTISRDNAKNTVYFQMNCLKPEDTAVYYSNAGLTLLSRRHEGWYGDDYWGPGTQVTVSS", "polyreactivity (PSR sort gate)": "low polyreactivity"}
{"sequence": "QVQLVESGGVLVQEGGSLRLSCAASVSIFSRNAMGSYRQAPGKERELVAAISYSGGSTYYADSVKGRLTISRDNAKNTVYLQMNSLKPEDTEVYYCAAYGHHFQGDYNYWGQGTQVTVSS", "polyreactivity (PSR sort gate)": "low polyreactivity"}
{"sequence": "QVQLVESGGGLVQAGGSLRLSCAASGSTFAYYVMGWYRQAPGKERELVAAISRGGRTYYADSVKGSFTISRDNAKNTVYLQMNSLKPEDTSVYYCNKVYVVYSRSKGFYYTYLKYEYWGQGTQVTVSS", "polyreactivity (PSR sort gate)": "low polyreactivity"}
{"sequence": "QVQLVESGGGLVQAGGSLRLSCAASGSISPQNVMGWYRQAPGKERELVAAITGGGSTNYADSVKGRFTISRDNAKQTVYLQLNSLKPEDTAVYYCNADYFQDRLDYWGQGTQVTVSS", "polyreactivity (PSR sort gate)": "low polyreactivity"}
{"sequence": "QVQLEESGGGLVQAGGSLRLSCAASGRIFSYNAMGWSIPAPGKERELVAAISYSGGRTYYADSVKGRFTISRDNAKNTVYLQMNSLKPEDTAVYYCAAKRKIRGYGPYEYWGQGTQVTVSS", "polyreactivity (PSR sort gate)": "high polyreactivity"}
{"sequence": "QVQLVESGGGLVQAGGSLRLSCAASGSTYWNAMGWYRQAPGKERELVAAITFRGGSTYADSVKGRFTISRDNAKNTVYLQMNSLKPEDTAVYYCAKASSHRWYNVRNRAGYDYWGQGTQVTVSS", "polyreactivity (PSR sort gate)": "high polyreactivity"}
{"sequence": "QVQLVESGGGLVQAGGSLRLSCSASGFIFTYVMGWYRQAPGKERELVAVITNGGSTYYADSVKGRFTISRDNAMNTVYLQMNSLKPEDTAVYYCAARARFRYDSYYYWGQGTQVTVSS", "polyreactivity (PSR sort gate)": "high polyreactivity"}
{"sequence": "QVQLVESCGGLVQAGGSLRLSCAASGSTFEEYAMGWYRQAPGKERELVASIRWSGGRTYYADSVKGRFTISRDNAKNTVYLQMNRLKPEDTAVYYCNKDYYITLHESEGKGGEMDYWGQGTQVTVSS", "polyreactivity (PSR sort gate)": "low polyreactivity"}
{"sequence": "QVQLVDSGGGLVQAGGSLRLSCAASGSIFKRNAMGWYRQAPGKERELVATISSRGGSTYYADSVKGRFTISRDNAKNTVYLQMNSLKPEDTAVYYCSARGYQITGNYYTPTSKYNYWGQGTQVTVSS", "polyreactivity (PSR sort gate)": "high polyreactivity"}
{"sequence": "QVQLVESGGGLVQAGGSLRLSCAASGSIFNYYAMGWYRQAPGKESELVAGITTSGGSTYYADSVKGRFTISRDNAKNTVYLQMNSLKPEDTAVYYCAAYDYISSTYFLYDYWGQGTQVTVSS", "polyreactivity (PSR sort gate)": "low polyreactivity"}
{"sequence": "QVQLVESGGGLVHAGGSLRLSCAACGRTFGRYPMGSYRQAPGKERELVAAITVGGGSTYYADSVKGRFTISRDYAKNTVYLQMNSLKPEDTAVYYCNALHTYTYRYDYYYWGQGTQVTVSS", "polyreactivity (PSR sort gate)": "high polyreactivity"}
{"sequence": "QVQLVESGGGLVQAGGSLRLSCAASGLTFGRNVMGWYRQAPGKERELVAAISWRGDSTYYADSVKGRFTISRDNAKNTGYLQMNSLKPEDTAVYYCAVRYYRGSVASGSDYWGQGTQVTVSS", "polyreactivity (PSR sort gate)": "high polyreactivity"}
{"sequence": "QVQLVESGGGLVQAGGSLRLSCAASGRIFLIYAMGWYRQAPGKERELVAAISWSGGSTYYADSVKGRFTISRDNAKNTVYLQMNSLKPEDTAVYYCNADDVNYGYYSWYDYWGQGTQVTVSS", "polyreactivity (PSR sort gate)": "low polyreactivity"}
{"sequence": "QVQLVESGGGLFQAGGSLRLSCAASGSIFDVNAMGWYRQAPGKEREFVAAISDSGGSTYYADSVKGRFTMSRDNAKNTVSLPMNSLKPEDTAVYYCNADWSWYNYYDFDYWGQGTQVTVSS", "polyreactivity (PSR sort gate)": "low polyreactivity"}
{"sequence": "QVQLVESGGGLVQAGGSLRLSCAASGLTFRVNAMGWYRQAPGKERELVAVISTDGGTTYYADSVKGRFTISRDNAKNTVYLQINSLKPEDTAVYYCAAKYAQVYIWVRQIHFDYWGQGTQVTVSS", "polyreactivity (PSR sort gate)": "low polyreactivity"}
{"sequence": "QVQLVESGAGLVQAGGSLRLSCAASGRTFHRYAMGWYRQAPGKERELVATINRNGGSTYYADSVKGRFTISRDNAKNTVYLQMNSLKPDDTAVYYCNKRVYTGYKYSESFDRYYYWGQGTQVTVSS", "polyreactivity (PSR sort gate)": "high polyreactivity"}
{"sequence": "QVQLVESGGGLVQAGGSLRLSCAASGSIFVFYAMGWYRQAPGKERELVATISSAGSTYYADSVKGRFTISRDNAKNTVYLQMNSLKPEDTAVYYCARGYIPSYWWYHSDRGDYWGQGTQVTVSS", "polyreactivity (PSR sort gate)": "low polyreactivity"}
{"sequence": "QVQLVDSGGGLVQAGGSLRLSCAASGSTFYAYVMGWYRQAPGKERELVAGITWSGGSTYYADSVKGRFTISRDNAKNTVYLQMNSLKPEDTAVYYCAADYYNTYGYDYWGQGTQVTVSS", "polyreactivity (PSR sort gate)": "low polyreactivity"}
{"sequence": "QVQLVESGGGLVQAGGSRSLSCAASGRIFTVYAMGWYRQAPGKERELVAAISGRGGRTTYADSVKGRFTISRDNAKNTVFLQMNSLKPEDTAVYYCAAAYLRYVSTQYHYDYWGEGTQVTVSS", "polyreactivity (PSR sort gate)": "low polyreactivity"}
{"sequence": "QVQLVESAGGLVQAGGSLRISCAASGSIFYYYAMGWYRQAPGKERELLAAIDSGGSTYYADSVKGRFTISRDNAKNTVYLQMNSLKPEDTAVYYCAADTYWFVYYGYDYWGQGTQVTVSS", "polyreactivity (PSR sort gate)": "low polyreactivity"}
{"sequence": "QVQLVESGGGLVQAGGSLRLSCAASGRTFPGYGMGWYRQAPGKERELVAVITSNGGITYYADSVKWRFTISRDIAKYTVYLVMNRLIAEDTAVYFCAAYEIYYEFVCWGQGSQVTVSS", "polyreactivity (PSR sort gate)": "low polyreactivity"}
{"sequence": "QVQLVESGGGLVQAGGSLRLSCAASGSIFWSYDMGWYRQAPGKERELVPTITSGDSTYYADSVKGRFTISRDNAKNTVYLQMNSLKPEDTAVYYCAAGTYYRRTYWHREYDYWGQGTQVTVSS", "polyreactivity (PSR sort gate)": "low polyreactivity"}
{"sequence": "QVQLVESGGGLVQAGGSLRLSCAASGIIFSFYAMGWYRQAPWKERELVAAISSGGNTNYADSVNGRFTISRDNAKNTVYLQMNSLKPEDTAVYYCAAGYYIWSTYDYWGQGTQVTVSS", "polyreactivity (PSR sort gate)": "low polyreactivity"}
{"sequence": "QVQLVESGGGLVQAGGSLRISCAASGRIFDYNVMGWYRQAPGKERELVAGISSGGSTYYADSVKGRFTISRDNAKNTVYLQMNSLKPEDTAVYYCAARGRPYRGYGYWGQGTQVTVSS", "polyreactivity (PSR sort gate)": "high polyreactivity"}
{"sequence": "QVQLVESGGGLVQAGGSLRLICAASGSIFRINAMGWYRQAPGKEMELVAAITGRVGSTYYADSVKGRFTISRDNAKNTVYLQMNSLKPEDTAVYYCAARAGSSRYTREYRYDYWGQGTQVTVSS", "polyreactivity (PSR sort gate)": "high polyreactivity"}
{"sequence": "QLLLQESGRGLVQAGVSLRLSCAASGSIFLVYTIGCYRKAPLKEREFVAGIPLGTTTYNADSVKGRFTISRDNVKNTVYLQINSLKPEDTSVYYCAVAVGHYTDIWDWGQGTQVTMSS", "polyreactivity (PSR sort gate)": "high polyreactivity"}
{"sequence": "QVQLVESGGGLVQAGGSLRLSCAASGRILYVNTMGWYRQAPGKERELVAGITSRVGSTYYADSVKGRFTISRDNAKNTVYLQMNSLKPEDTAVYYCNARDKFYVPSLYAYDYWGQGTQVTVSS", "polyreactivity (PSR sort gate)": "low polyreactivity"}
{"sequence": "QVQLVESGVGLVQAGGSLRLSCAASGSTLFVYTKGWSRQAPGKERELVAAITSSGGSTYYADSVKGRFTISRDKAKNTVYLQMNSLKAQDTAVYYCAAKELGSPYDYWGQGTQVTVSS", "polyreactivity (PSR sort gate)": "high polyreactivity"}
{"sequence": "QVQLVESGGGLVQAGGSLRLSCAASGSIFDDYAMGWYRQAPGKERELVAAITTGGGRTYYADSVKGRFTISRDNAKNTVYLQMNSLKPEDTAVYYCNAKAVRGYGTWRDGSISYGMDYWGQGTQVTVSS", "polyreactivity (PSR sort gate)": "high polyreactivity"}
{"sequence": "QVQLVESGGGLVQAGGSLRLSCAASGSTLVLNAMGWYRQAPGKERELVAAITISGDTTYYADSVKGRFTISRDNAKNTVYLQMNSLKPEDTAVYYCAAVVSTVDGMEYWGQGTQVTVSS", "polyreactivity (PSR sort gate)": "low polyreactivity"}
{"sequence": "QVQLVESGGGLVQAGGSLRLSCAASGSIFGQYAMGWYRQAPGKEREYVAAISWRGTSTYYADSVKGRFTISRDNAKNTVYLQMNSLKPEDTAVYYCAGRYVKPSRYKYNYWGQGTQVTVSS", "polyreactivity (PSR sort gate)": "high polyreactivity"}
{"sequence": "QVQLVESGGRLVQAGGSLRLSCAASGGTFGQYAMGWYRQAPGKERELVAAISRGGDSTYSADSVKGRFTISRDNAKNTVYLQMNSLKPADTAVYYCAAPGISYYSRYYYRTYDYWGQGTQVTVSS", "polyreactivity (PSR sort gate)": "high polyreactivity"}
